# Test results from patent publication US8410045B2, “Camptothecin-peptide conjugates and pharmaceutical compositions containing the same” (Drais Pharmaceuticals, Inc., priority 2006, dated 2013).
# Several values for one entry are separate records, joined by “and”; a condition that tells them apart may be missing. Identical values can stand only once. Like-named read-outs stand apart in the source and are kept apart here. Marks after values point to notes of the source that are not given here.
# Assays:
# [1] = Toxicity study in the beagle dog following intravenous infusion; conditions: for Reduction in WBC at D5 (%) / Toxic signs Day 1 / Toxic signs Following Days: i.v. infusion
# Procedure: Adult female and male beagle dogs were individually housed with free access to tap water. A pellet diet was distributed daily.
# Dogs (1 dog for each drug and dose) were infused intravenously through the cephalic or saphenous vein. These intravenous infusions were made using a single-use catheter (Intraflon®) and a plastic syringe connected to a syringe pump. During the injection, the animals were restrained in a hammock.
# Conjugates were dissolved in water for injection (10% of final volume) and diluted with 0.9% NaCl to their final concentration. The volume administered to each animal was adjusted according to body weight.
# Clinical signs, hematological and intestinal toxicities were monitored during a period of 15 days after infusion. Each animal was checked at least twice a day for mortality or signs of morbidity.
# The body weight of each animal was recorded on the day −1, 4, 10 and 13.
# Peripheral blood samples were taken into EDTA tubes for the determination of following parameters on days −1, 5, 11 and 14: erythrocytes, hemoglobin, mean cell volume, packed cell volume, mean cell hemoglobin concentration, mean cell hemoglobin, thrombocytes, leucocytes, differential white cell count with cell morphology.
# [2] = tested on: HCT 116 human epithelial colon carcinoma cells; experiment: cells; format: cell-based
# Procedure: Cytotoxic evaluation was performed by seeded cells for 24 h prior to the addition of the therapeutic compound. Cells were incubated for 48 h (37° C.) with different dilutions of the therapeutic compound. Cell viability was then assessed using the WST-1 assay (Roche). The results are expressed as mean cytotoxic concentrations (IC50 value or molar concentration that inhibits 50% of cell viability) that were estimated from sigmoid regression, using Graph Pad Prism 3.02 software.
# HCT 116 (ATCC #: CCL-247): human epithelial colon carcinoma cells. Cells were cultured in Mc Coy's 5a medium+1.5 mM L-glutamine and 10% fetal bovine serum. Cells were plated at a density of 8000 cells/well in 96-well plates.
# [3] = tested on: NCI-H460 human epithelial lung carcinoma cells; experiment: In vitro cytotoxicity (WST-1 cell viability); format: cell-based; conditions: 24 h
# [4] = tested on: HCT 116 human colorectal carcinoma tumor
# [5] = Table 3, 30 (cumulative 90) μmol/kg, i.v. bolus, Q4Dx3
# [6] = Table 7, i.v. Q2D3 × 3 W, 25 μmol/kg
structure (smiles),measurement,setting,value
"CCc1c2c(nc3ccc(OC(=O)[C@H]4CC[C@H](CNC(=O)C5CCC(CN6C(=O)CC(SC[C@H](N)C(=O)N[C@H](C(=O)N[C@@H](CCCCN)C(=O)N[C@@H](CCCNC(=N)N)C(=O)NCC(=O)N[C@@H](CC(C)C)C(=O)N[C@@H](CCCCN)C(=O)N[C@@H](CC(C)C)C(=O)N[C@@H](CCCNC(=N)N)C(=O)N[C@@H](Cc7c[nH]cn7)C(=O)N[C@H](C(=O)N[C@@H](CCCNC(=N)N)C(=O)N7CCC[C@H]7C(=O)N[C@@H](CCCNC(=N)N)C(=O)N[C@H](C(=O)N[C@H](C(=O)N[C@@H](CCCNC(=N)N)C(=O)N[C@@H](CCSC)C(=O)N[C@@H](CC(=O)O)C(=O)N[C@H](C(=O)O)C(C)C)[C@@H](C)O)C(C)C)C(C)C)C(C)C)C6=O)CC5)CC4)cc13)-c1cc3c(c(=O)n1C2)COC(=O)[C@]3(O)CC (single isomer, unassigned) [DPV1047-BCH-SN38]",reduction in WBCs,"[1]; dog, 20 mg/kg",93%
same,clinical signs of toxicity,"[1]; dog, 30 mg/kg",clear toxicological signs including diarrhea and a severe hematoxicity
same,Reduction in WBC at D5 (%),"[1]; dog, 5 mg/kg",−60%
same,Toxic signs Day 1,"[1]; dog, 5 mg/kg",None
same,Toxic signs Following Days,"[1]; dog, 5 mg/kg",None
same,Reduction in WBC at D5 (%),"[1]; dog, 10 mg/kg",−50% and −57%
same,Toxic signs Day 1,"[1]; dog, 10 mg/kg",None
same,Toxic signs Following Days,"[1]; dog, 10 mg/kg",None
same,Reduction in WBC at D5 (%),"[1]; dog, 20 mg/kg",−93%
same,Toxic signs Day 1,"[1]; dog, 20 mg/kg",None
same,Toxic signs Following Days,"[1]; dog, 20 mg/kg",Decrease in food
same,Reduction in WBC at D5 (%),"[1]; dog, 30 mg/kg",−96%
same,Toxic signs Day 1,"[1]; dog, 30 mg/kg",None
same,Toxic signs Following Days,"[1]; dog, 30 mg/kg",Liquid faeces D4
same,MTD,"[1]; dog, in vivo, iv",~20 mg/kg
same,clinical signs,"[1]; dogs, 5 and 10 mg/kg",no clinical signs
same,IC50,[2]; 24 h,0.024 µM
same,IC50,[2]; 48 h,0.029 µM
same,IC50,[3],0.04 µM
same,"clinical signs of toxicity such as body weight loss, diarrhea or alopecia","[4]; HCT 116 tumor-bearing nude mice, conjugates administered at their MADs",No clinical signs of toxicity
same,Minimal T/C (%),[4]; [5],10%
same,TGI %,[4]; [5],80%
same,TGI (100-T/C %),"[4]; Table 5, Q1D5, 18 (cumulative 90) μmol/kg",93*** %
same,Minimal T/C (%),"[4]; Table 5, Q1D5, 18 (cumulative 90) μmol/kg, i.v. bolus",7%
same,Minimal T/C (%),"[4]; Table 5, Q2D3x3W, DPV1047-BCH-SN38 25 (225), irinotecan 48 (432) μmol/kg",3%
same,TGI (100-T/C %),"[4]; Table 5, Q2D3x3W, DPV1047-BCH-SN38 25, irinotecan 48 μmol/kg",97*** %
same,Optimal T/C %,[4]; [6],3.4%
same,TGI %,[4]; [6],96.6%
same,Minimal T/C (%),"[4]; mouse, in vivo",10%
same,TGI (100-T/C %),"[4]; mouse, in vivo",90*** %
